Laboratory results from US20260078159A1 (CUGENE, published 2026).
Values joined by “and” are separate entries in the source; they are usually repeats but may differ in a detail not shown here. Equal entries are not always repeated. Where two headings read alike, the source gives them in different places. Values belong to the binder of their own block, whether it stands above or below them.

Tests used:
human PD1 on cells [1] = target: T1, human PD1 on cells (human, UniProt Q15116 25-288); assay: cell-based or functional assay
[2] = target: recombinant human PD1 protein (human, UniProt Q15116 25-170, limits assumed); assay: binding ELISA, plate-coated recombinant human PD1
Description: Antibodies of the invention were tested for their antigen binding activity by well-known methods such as enzyme-linked immunosorbent assay (ELISA). Briefly, Nunc Maxisorp plates (ThermoFisher) were coated with recombinant human PD1 protein in bicarbonate buffer, pH 9.4 (ThermoFisher), overnight at 4° C., using 1 μg of antigen per well (100 μL/well). After triple washing with PBS/0.05% Tween 20, plates were incubated with SuperBlock (ThermoFisher) for two hours at room temperature to block nonspecific binding. The PD1 antibodies, serially diluted three-fold with blocking buffer (PBS with 1% bovine serum albumin) were added to the plates (100 μL/well) post washing and incubated at room temperature for one hour. After another washing, antibodies were detected by incubating with a horseradish peroxidase (HRP)-conjugated goat anti-human IgG Fc antibody (ThermoFisher) diluted 1:5000 in blocking buffer (100 μL/well) for one hour at room temperature. After a final wash, TMB substrate (ThermoFisher) at 100 μL/well was added. Plates were sealed and left to incubate in dark for 5-20 minutes. The reaction was stopped by adding 2N sulfuric acid (Ricca Chemical) (50 μL/well), and the absorbance was measured at 450 nm with a plate reader. The curves were plotted, and the half-maximal effective concentration (EC₅₀) values were calculated using GraphPad Prism software.

human PD1 on cells [3] = target: T1, human PD1 on cells; assay: cell-based or functional assay; remark: listed apart in the source
human PD1 on cells [4] = target: T1, human PD1 on cells; assay: cell-based or functional assay; remark: listed apart in the source
human PD1 on cells [5] = target: T1, human PD1 on cells; assay: flow cytometry on PD1+ HEK293 cells, % positive cells
Description: (§1) Additionally, HEK 293T cells stably expressing human PD1 gene (Crown Bioscience) was used to determine the cell-based binding strength of the optimized PD1 antibodies by flow cytometry. After harvesting, HEK293-hPD1 cells were seeded into a 96-well U-bottom plate at 1×10⁵ cells/well (100 μL), incubated with Fc block (1:50) for 20 minutes at 4° C., and subsequently washed with FACS buffer (PBS, 1% FBS). Cells were then treated with three-fold serial dilutions of each antibody at concentrations ranging from 0.01-100 nM in FACS buffer for 30 minutes at 4° C. Subsequently, cells were washed twice with FACS buffer to remove unbound molecules, and 40 µL of the 1:100 diluted PE-labeled goat anti-human Fc secondary antibody (eBiosciences) was added to the cells. Following a 30-minute incubation at 4° C. and another double wash with FACS buffer, antibodies bound to the cells were detected with PE-labeled secondary antibody by flow cytometry (BD ACCURI-C6), and EC₅₀ values were calculated using GraphPad Prism software.

human PD1 on cells [6] = target: T1, human PD1 on cells; assay: flow cytometry on PD1+ HEK293 cells, MFI
Description: as §1

T1 sequence (Q15116 25-288 limits assumed): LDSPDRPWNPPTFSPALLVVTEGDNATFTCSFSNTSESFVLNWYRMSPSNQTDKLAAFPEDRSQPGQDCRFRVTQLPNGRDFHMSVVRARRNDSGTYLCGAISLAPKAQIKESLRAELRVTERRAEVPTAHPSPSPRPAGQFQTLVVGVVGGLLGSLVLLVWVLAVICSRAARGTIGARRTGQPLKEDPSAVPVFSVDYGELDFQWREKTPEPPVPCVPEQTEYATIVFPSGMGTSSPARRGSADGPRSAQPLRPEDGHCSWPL
Sequence of recombinant human PD1 protein (Q15116 25-170 limits assumed): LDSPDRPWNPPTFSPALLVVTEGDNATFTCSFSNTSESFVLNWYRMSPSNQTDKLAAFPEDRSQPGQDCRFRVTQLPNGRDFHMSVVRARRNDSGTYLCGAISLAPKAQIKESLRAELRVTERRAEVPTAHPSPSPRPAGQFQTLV

B1: P-1148 (antibody, human IgG1, kappa, V domains shown)
VH: QVQLVQSGVEVKKPGASVKVSCKASGYTFTNYYMYWVRQAPGQGLEWMGGINPSNGGTNFAQKFQGRVTLTTDSSTTTAYMELKSLQFDDTAVYYCARRDYRFDMGFDYWGQGTTVTVSS
VL: EIVLTQSPATLSLSPGERATLSCRASQGVSTSGYSYLHWYQQKPGQAPRLLIYLASYRASGVPARFSGSGSGTDFTLTISSLEPEDFAVYYCQHSRDLPLTFGGGTKVEIKR
notes: Full-length IgG1 L234A/L235A/G237A, kappa
- PD1 blocking activity (reporter assay) EC50 (human PD1 on cells [1]): 1.56 nM
- PD1 blocking activity (reporter assay) Fold induction (human PD1 on cells [1]): 4.63 fold
- PD1 blocking activity (reporter assay) Vmax (human PD1 on cells [1]): 48200 RLU
- EC50 [2]: 0.093 nM

B5: P-1127 (antibody, human IgG1, kappa, V domains shown)
VH: QVQLVQSGVEVKKPGASVKVSCKASGYTFTNYYMYWVRQAPGQGLEWMGGINPSNGGTNFNEKFKNRVTLTTDSSTTTAYMELKSLQFDDTAVYYCARRDYRFDMGFDYWGQGTTVTVSS
VL: EIVLTQSPATLSLSPGERATLSCRASQGVSTSGYSYLHWYQQKPGQAPRLLIYLASYRESGVPARFSGSGSGTDFTLTISSLEPEDFAVYYCQHSRDLPLTFGGGTKVEIKR
- PD1 blockade reporter assay EC50 (human PD1 on cells [4]): 0.39 nM and 0.54 nM

B8: P-1129 (antibody, human IgG1, kappa, V domains shown)
VH: QVQLVQSGVEVKKPGASVKVSCKASGYTFTNYYMYWVRQAPGQGLEWMGGINPSNGGTNFNEKFKNRVTLTTDSSTTTAYMELKSLQFDDTAVYYCARRDYRFDMGFDYWGQGTTVTVSS
VL: EIVLTQSPATLSLSPGERATLSCRASQGVSTSGYSYLHWYQQKPGQAPRLLIYLASYRASGVPARFSGSGSGTDFTLTISSLEPEDFAVYYCQHSRDLPLTFGGGTKVEIKR
- PD1 blockade reporter assay EC50 (human PD1 on cells [4]): 0.58 nM

B11: P-1153 (antibody, human IgG1, kappa, V domains shown)
VH: QVQLVQSGVEVKKPGASVKVSCKASGYTFTNYYMYWVRQAPGQGLEWMGGINPSNGGTNYAQKFQGRVTLTTDSSTTTAYMELKSLQFDDTAVYYCARRDYRFDMGFDYWGQGTTVTVSS
VL: EIVLTQSPATLSLSPGERATLSCRASQGVSTSGYSYLAWYQQKPGQAPRLLIYLASYRASGVPARFSGSGSGTDFTLTISSLEPEDFAVYYCQHSRDLPLTFGGGTKVEIKR
notes: as for B1
- PD1 blocking activity (reporter assay) EC50 (human PD1 on cells [1]): 9.88 nM
- PD1 blocking activity (reporter assay) Fold induction (human PD1 on cells [1]): 3.04 fold
- PD1 blocking activity (reporter assay) Vmax (human PD1 on cells [1]): 30800 RLU
- decrease in PD1 blockade potency (EC50) compared to P-0734 (human PD1 on cells [4]): ~20 fold
- EC50 [2]: 0.11 nM

B12: P-1150 (antibody, human IgG1, kappa, V domains shown)
VH: QVQLVQSGVEVKKPGASVKVSCKASGYTFTNYYMYWVRQAPGQGLEWMGGINPSNGGTNFAQKFQGRVTLTTDSSTTTAYMELKSLQFDDTAVYYCARRDYRFDMGFDYWGQGTTVTVSS
VL: EIVLTQSPATLSLSPGERATLSCRASQGVSTSGYSYLAWYQQKPGQAPRLLIYLASYRASGVPARFSGSGSGTDFTLTISSLEPEDFAVYYCQHSRDLPLTFGGGTKVEIKR
notes: as for B1
- PD1 blocking activity (reporter assay) EC50 (human PD1 on cells [1]): 5.55 nM
- PD1 blocking activity (reporter assay) Fold induction (human PD1 on cells [1]): 3.49 fold
- PD1 blocking activity (reporter assay) Vmax (human PD1 on cells [1]): 36500 RLU
- EC50 [2]: 0.088 nM

B13: P-1151 (antibody, human IgG1, kappa, V domains shown)
VH: QVQLVQSGVEVKKPGASVKVSCKASGYTFTNYYMYWVRQAPGQGLEWMGGINPSNGGTNYAQKFQGRVTLTTDSSTTTAYMELKSLQFDDTAVYYCARRDYRFDMGFDYWGQGTTVTVSS
VL: EIVLTQSPATLSLSPGERATLSCRASQGVSTSGYSYLHWYQQKPGQAPRLLIYLASYRASGVPARFSGSGSGTDFTLTISSLEPEDFAVYYCQHSRDLPLTFGGGTKVEIKR
notes: as for B1
- PD1 blocking activity (reporter assay) EC50 (human PD1 on cells [1]): 2.83 nM
- PD1 blocking activity (reporter assay) Fold induction (human PD1 on cells [1]): 4.15 fold
- PD1 blocking activity (reporter assay) Vmax (human PD1 on cells [1]): 44300 RLU
- EC50 [2]: 0.065 nM

B14: P-1174 (antibody, human IgG1, kappa, V domains shown)
VH: QVQLVQSGVEVKKPGASVKVSCKASGYTFTNYYMYWVRQAPGQGLEWMGGINPSNGGTNFAQKFQGRVTLTTDSSTTTAYMELKSLQFDDTAVYYCARRDYRFDMGFDYWGQGTTVTVSS
VL: EIVLTQSPATLSLSPGERATLSCRASQGVSTSGYSYLHWYQQKPGQAPRLLIYLASYRESGVPARFSGSGSGTDFTLTISSLEPEDFAVYYCQHSRDLPLTFGGGTKVEIKR
- PD1 blockade reporter assay EC50 (human PD1 on cells [4]): 0.67 nM

Results, then the binder that gave them:

- PD1 blocking activity (reporter assay) EC50 (human PD1 on cells [3]): 1.51 nM
- PD1 blocking activity (reporter assay) Fold induction (human PD1 on cells [3]): 4.77 fold
- PD1 blocking activity (reporter assay) Vmax (human PD1 on cells [3]): 48100 RLU
B2: P-1177 (antibody, human IgG1, kappa, V domains shown)
VH: EVQLLESGGGLVQPGGSLRLSCAASGFTFTNYYMYWVRQAPGKGLEWMGGINPSNGGTNYADKFKGRFTISRDNSKNTLYLQMNSLRAEDTAVYYCARRDYRFDMGFDYWGQGTLVTVSS
VL: EIVLTQSPATLSLSPGERATLSCRASKGVSTSGYSYLHWYQQKPGQAPRLLIYLASYLESGVPARFSGSGSGTDFTLTISSLEPEDFAVYYCQHSRDLPLTFGGGTKVEIKR

- PD1 blocking activity (reporter assay) EC50 (human PD1 on cells [3]): 0.67 nM
- PD1 blocking activity (reporter assay) Fold induction (human PD1 on cells [3]): 5.27 fold
- PD1 blocking activity (reporter assay) Vmax (human PD1 on cells [3]): 52100 RLU
B3: P-1176 (antibody, human IgG1, kappa, V domains shown)
VH: EVQLLESGGGLVQPGGSLRLSCAASGFTFTNYYMYWVRQAPGKGLEWVSGINPSNGGTNYADKFKGRFTLSTDSSKNTLYLQMNSLRAEDTAVYYCARRDYRFDMGFDYWGQGTLVTVSS
VL: EIVLTQSPATLSLSPGERATLSCRASKGVSTSGYSYLHWYQQKPGQAPRLLIYLASYLESGVPARFSGSGSGTDFTLTISSLEPEDFAVYYCQHSRDLPLTFGGGTKVEIKR

- decrease in Emax and fold induction compared to P-0734 (human PD1 on cells [4]): 25%
- reduction in potency (EC50) compared to P-0734 (human PD1 on cells [4]): 10 fold
- PD1 blocking activity (reporter assay) EC50 (human PD1 on cells [3]): 6.21 nM
- PD1 blocking activity (reporter assay) Fold induction (human PD1 on cells [3]): 4.07 fold
- PD1 blocking activity (reporter assay) Vmax (human PD1 on cells [3]): 42000 RLU
B4: P-1175 (antibody, human IgG1, kappa, V domains shown)
VH: EVQLLESGGGLVQPGGSLRLSCAASGFTFTNYYMYWVRQAPGKGLEWVSGINPSNGGTNYADKFKGRFTISRDNSKNTLYLQMNSLRAEDTAVYYCARRDYRFDMGFDYWGQGTLVTVSS
VL: EIVLTQSPATLSLSPGERATLSCRASKGVSTSGYSYLHWYQQKPGQAPRLLIYLASYLESGVPARFSGSGSGTDFTLTISSLEPEDFAVYYCQHSRDLPLTFGGGTKVEIKR

- drop in potency compared to P-0734 (human PD1 on cells [4]): 15 fold
- PD1 blocking activity (reporter assay) EC50 (human PD1 on cells [3]): 9.18 nM
- PD1 blocking activity (reporter assay) Fold induction (human PD1 on cells [3]): 3.26 fold
- PD1 blocking activity (reporter assay) Vmax (human PD1 on cells [3]): 29600 RLU
B6: P-1181 (antibody, human IgG1, kappa, V domains shown)
VH: EVQLLESGGGLVQPGGSLRLSCAASGFTFTNYYMYWVRQAPGKGLEWVSGINPSNGGTNFNDSVKGRFTISRDNSKNTLYLQMNSLRAEDTAVYYCARRDYRFDMGFDYWGQGTLVTVSS
VL: EIVLTQSPATLSLSPGERATLSCRASKGVSTSGYSYLHWYQQKPGQAPRLLIYLASYLESGVPARFSGSGSGTDFTLTISSLEPEDFAVYYCQHSRDLPLTFGGGTKVEIKR

- PD1 blockade reporter assay EC50 (human PD1 on cells [4]): 0.73 nM
B7: P-1238 (antibody, human IgG1, kappa, V domains shown)
VH: EVQLLESGGGLVQPGGSLRLSCAASGFTFTNYYMYWVRQAPGKGLEWMGGINPSNGGTNYADKFKGRFTLSTDSSKNTLYLQMNSLRAEDTAVYYCARRDYRFDMGFDYWGQGTLVTVSS
VL: EIVLTQSPATLSLSPGERATLSCRASQGVSTSGYSYLHWYQQKPGQAPRLLIYLASYRESGVPARFSGSGSGTDFTLTISSLEPEDFAVYYCQHSRDLPLTFGGGTKVEIKR

- EC50 (human PD1 on cells [5]): 0.019 nM
- EC50 (human PD1 on cells [6]): 0.087 nM
B9: P-1198 (antibody, human IgG1, kappa, V domains shown)
VH: EVQLLESGGGLVQPGGSLRLSCAASGFTFTNYYMYWVRQAPGKGLEWVSGINPSNGGTNFADKFKGRFTISRDSSKNTLYLQMNSLRAEDTAVYYCARRDYRFDMGFDYWGQGTLVTVSS
VL: EIVLTQSPATLSLSPGERATLSCRASQGVSTSGYSYLHWYQQKPGQAPRLLIYLASYRESGVPARFSGSGSGTDFTLTISSLEPEDFAVYYCQHSRDLPLTFGGGTKVEIKR
notes: as for B1

- PD1 blocking activity (reporter assay) EC50 (human PD1 on cells [3]): 0.68 nM
- PD1 blocking activity (reporter assay) Fold induction (human PD1 on cells [3]): 5.5 fold
- PD1 blocking activity (reporter assay) Vmax (human PD1 on cells [3]): 53100 RLU
B10: P-1178 (antibody, human IgG1, kappa, V domains shown)
VH: EVQLLESGGGLVQPGGSLRLSCAASGFTFTNYYMYWVRQAPGKGLEWMGGINPSNGGTNYADKFKGRFTLSTDSSKNTLYLQMNSLRAEDTAVYYCARRDYRFDMGFDYWGQGTLVTVSS
VL: EIVLTQSPATLSLSPGERATLSCRASKGVSTSGYSYLHWYQQKPGQAPRLLIYLASYLESGVPARFSGSGSGTDFTLTISSLEPEDFAVYYCQHSRDLPLTFGGGTKVEIKR
